Test results reported in the supplement of paper PMC9112550, “Optimization of the antimicrobial peptide Bac7 by deep mutational scanning” (BMC Biology, 2022).

Tested on: Escherichia coli TOP10
Experiment: shrunken log2 fold change of peptide-encoding DNA abundance (4.5 h post-induction vs induction); higher = less antimicrobial activity (less host growth inhibition)
Settings: time post-induction: 4.5 h; library: site-saturation at positions 5, 18, 19, 20
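Also: peptides expressed intracellularly from a pBAD plasmid library in pooled LB shake-flask culture, induced with 0.3% L-arabinose, DNA abundance read by NGS, three biological replicates, DESeq2 with apeglm shrinkage.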

| Sequence | shrunken log2 fold change |
| --- | --- |
| RRIRDRPPRLPRPRPRPCCLPRP | -0.146 |
| RRIRCRPPRLPRPRPRPFQCPRP | -0.296 |
| RRIRERPPRLPRPRPRPRLCPRP | -0.426 |
| RRIRNRPPRLPRPRPRPQNVPRP | -0.0764 |
| RRIRIRPPRLPRPRPRPQMIPRP | -0.241 |
| RRIRFRPPRLPRPRPRPWIMPRP | -0.206 |
| RRIRKRPPRLPRPRPRPWSVPRP | -0.0212 |
| RRIRVRPPRLPRPRPRPATDPRP | 0.132 |
| RRIRNRPPRLPRPRPRPYVQPRP | -0.0341 |
| RRIRVRPPRLPRPRPRPGFKPRP | -0.0945 |
| RRIRIRPPRLPRPRPRPRTWPRP | -0.0123 |
| RRIRGRPPRLPRPRPRPEKDPRP | 1.27 |
| RRIRQRPPRLPRPRPRPSSYPRP | -0.416 |
| RRIRWRPPRLPRPRPRPLILPRP | -0.604 |
| RRIRNRPPRLPRPRPRPEPCPRP | -0.0302 |
| RRIRMRPPRLPRPRPRPNVQPRP | -0.166 |
| RRIRPRPPRLPRPRPRPTHCPRP | 0.1 |
| RRIRHRPPRLPRPRPRPGWFPRP | 0.0663 |
| RRIRLRPPRLPRPRPRPTWFPRP | 0.0207 |
| RRIRQRPPRLPRPRPRPEPLPRP | 0.287 |
| RRIRHRPPRLPRPRPRPNGQPRP | 0.024 |

| Sequence | shrunken log2 fold change |
| --- | --- |
| RRIRCRPPRLPRPRPRPTKVPRP | -0.413 |
| RRIRSRPPRLPRPRPRPMIAPRP | 0.0435 |
| RRIRCRPPRLPRPRPRPVDPPRP | 0.227 |
| RRIRGRPPRLPRPRPRPVCEPRP | 1.06 |
| RRIRMRPPRLPRPRPRPQATPRP | -0.00147 |
| RRIRCRPPRLPRPRPRPWSNPRP | 0.00372 |
| RRIRVRPPRLPRPRPRPFRIPRP | -0.26 |
| RRIRHRPPRLPRPRPRPHYFPRP | 0.00508 |
| RRIRERPPRLPRPRPRPEVTPRP | -0.0794 |
| RRIRGRPPRLPRPRPRPDPDPRP | 0.776 |
| RRIRPRPPRLPRPRPRPPLIPRP | -0.338 |
| RRIRPRPPRLPRPRPRPPEHPRP | 0.0484 |
| RRIRLRPPRLPRPRPRPIEAPRP | -0.00911 |
| RRIRWRPPRLPRPRPRPLHHPRP | -0.0749 |
| RRIRYRPPRLPRPRPRPIGRPRP | -0.0417 |
| RRIRARPPRLPRPRPRPWGWPRP | 0.649 |
| RRIRRRPPRLPRPRPRPQGCPRP | -0.189 |
| RRIRRRPPRLPRPRPRPRTFPRP | 0.338 |
| RRIRPRPPRLPRPRPRPAWTPRP | 0.492 |
| RRIRWRPPRLPRPRPRPYSVPRP | -0.55 |
| RRIRGRPPRLPRPRPRPLAEPRP | 2.89 |

| Sequence | shrunken log2 fold change |
| --- | --- |
| RRIRDRPPRLPRPRPRPFTLPRP | -0.0329 |
| RRIRARPPRLPRPRPRPHHMPRP | -0.715 |
| RRIRMRPPRLPRPRPRPFEWPRP | 0.174 |
| RRIRWRPPRLPRPRPRPFWKPRP | -0.136 |
| RRIRMRPPRLPRPRPRPDTMPRP | 0.28 |
| RRIRSRPPRLPRPRPRPDLKPRP | -0.00372 |
| RRIRARPPRLPRPRPRPIPSPRP | -0.156 |
| RRIRSRPPRLPRPRPRPRWSPRP | 0.122 |
| RRIRKRPPRLPRPRPRPWTIPRP | 0.0185 |
| RRIRFRPPRLPRPRPRPTWIPRP | -0.222 |
| RRIRMRPPRLPRPRPRPKIKPRP | 0.248 |
| RRIRVRPPRLPRPRPRPWMCPRP | -0.522 |
| RRIRKRPPRLPRPRPRPEIHPRP | 0.27 |
| RRIRRRPPRLPRPRPRPVSGPRP | 0.366 |
| RRIRGRPPRLPRPRPRPNIKPRP | 0.136 |
| RRIRDRPPRLPRPRPRPGDVPRP | 0.0601 |
| RRIRQRPPRLPRPRPRPNIDPRP | -0.516 |
| RRIRRRPPRLPRPRPRPFPAPRP | 0.731 |
| RRIRERPPRLPRPRPRPRHFPRP | -0.419 |
| RRIRWRPPRLPRPRPRPWYMPRP | -0.885 |
